From FireProtDB (doi:10.1006/jmbi.2001.4993)

Conditions: Equus caballus, pH 7, 10 °C, GdnHCl, sodium dithionite 0.5-2 mM, reversible: yes

Sequence of Cytochrome c wild type, P00004 (P00004 whole entry): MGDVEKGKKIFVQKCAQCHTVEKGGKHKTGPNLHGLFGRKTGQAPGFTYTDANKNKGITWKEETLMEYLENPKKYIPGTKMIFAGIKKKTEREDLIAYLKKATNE

## Cytochrome c wild type, P00004
Absorbance
  denaturant midpoint (higher = more stable): 5.1 M
  unfolding free energy: 18.8 kcal/mol
Absorbance, transition: 3
  denaturant midpoint (higher = more stable): 5.01 M
Fluorescence
  denaturant midpoint (higher = more stable): 5.1 M
  unfolding free energy: 18.8 kcal/mol
Fluorescence, transition: 3
  denaturant midpoint (higher = more stable): 5.02 M
